# Measurements taken from the NTF2 design screens of Basanta et al. (2020).
# Assay: protease stability score; higher = more stable; yeast display proteolysis, trypsin and chymotrypsin;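 further: relative to predicted unfolded state with 0 unfolded-like and 1 meaning tenfold more protease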
row,Sequence,protease stability score
1,REEEEHAHRIFEILVRLWLTGDEDTYLNLADPHDLIEIDQGDKRDENHGRESAFHLWEWFLREMRIKRMILRDERVQGEKLEFDVEVRGNINGVDLRFRVHIIIVVINGRFKSSKVILN,0.759
2,SELEKHLEDVASMWLKVIQTGDWDKLFELADPNVRFEQIYGDKKVELHGREEMIEWLRKFMEQMRTEHRIHSMEVQGDKVHLDTRVILDFNGVRIHLETRVIIIVVNGRLHSYSEHVK,1.31
3,STLEEHVFRMAYEIITDLETGDEEYYKKRADPDMYVHIRIGDKEVEIHGREHFIQWVKRLFEEIRIHWRIRDMHIVDGVYRFHTELEIRIGDKEHRIKSEVKVVVVNGKIKQLEIRIK,2
4,DEEEDVMRKWLQLFLEAFETGDFRLIEEMFDPNTRLDVGDKEYHGRDEIARVIRTLWEEMRFEHFHIHRFDVFNGVANSDTHVVGKIGDKRRDVRVHIILIIVNGKLKKFRIETR,1.71
5,DEHHRWLEQALHLWIHTILTGDEKVLHELFDPDVRLNVDGQDFHGRELMIKWFHDILRKFKNIRIKHIHIEDRRYYDGRLEIHTSVNVEFNGRPHEEKYRIIAFKIDGRWRLKEEEFH,1.8
6,DDRKKEAQRILELFLKIWETGDEEELLKLLDPNVKLHIGDKNIHGMEEATRILTENVREIRTHIVHKRVHIQGDKVELEGELRIHVNGREESNRVHYELIVVNGKVKAIHVHLE,1.16
7,SEIHDIARKMMNIVRRLLHTGDEDKWLDLADPDVRIHINGRDFIGRELWVQIYRELGVDHLDLKIERVEIVDGVIILHGTLDIHYGDKTHEIEINIFIRKVNGRWRLKLEHHK,1.71
8,SEDEQESRDIIKLLDKSIETGDEKTATRLADPHMRLDIDGVDLHGREEFVRWVIFVVREMRSRVEHTRVRMYDGRAEVDTTLLFIFEGRELRVESHIIMLKIDGRWIIHEVRIH,1.26
9,DLDNILMKLFLKEVEEVERTGDERLIHELADPNVRVEQGDKKFHGRHEAVRIYMELGIKHSRLTDVKFFEGHVLIHVRIHVDGRDIDLTIFMHKIDGRWIIKSMKQD,1.16
10,THDEEVIEIMMDHLREQIHTGDFTSLLEQLDPHARSDVDGREFHGREIVAHVWFHLRVKHVRIDHVDIVNGKIRVDSWIQGRINGRETEYEVILRAHKVDGRWRVHSYEIR,1.72
11,DESTKAAEDIFEIIREMLETGDEETTRRLFDPDAKIIIGDKEIHGRENIELFMRLWLKQFDHVHDMTIRRMEIQGDKVIMDTEIHGTINGQRRTIRTRWIVVKINGKWSIHEVYFT,2.02
12,SEDNEHLRKFLEDFIRAMETGDWKMLFRLMDPNVRMEVNGRELHGREEAKKLIEEIISRYDHVHIEIKRAHSIGDKIEVWGISDVEIGDKKHEIPLLFILKKVDGKWIIHSIRSE,2.11
13,SEEEEMTRLALEIFHRVYKTGDEDKYRDLADPHVRLVVGDKTFHGREHYLKFFRHIRIHHSHLDDFEIQGDKAILDTTIDVNINGKRHWIKTHVISVKVNGQWRLHSEELS,0.178
14,EEEKEIAEELIRRIRESLRTGDEDLKHKLADPNVRHIFNGRNNHGREEMLRTLEELIKQFGVENIDIELHDWDHVDGRLHIHVRVRYGDYMMHLRIEAEKVNGRWQSETVELR,1.23
15,DKEEKEAREWSKRFLHLFLTGNEEEFKRLMDPHTQSMLLIDGKRDTHHGRDEATKLLSDWLNHMRLRELRVHDIKVQGDKATLDIRLNVEFNGVELERTSEIIIVVFDGRIKSVIFRIE,1.55
16,TEHDQVLLQLSQELFHSVLTGDFDLWTKLMDPNVRVHIISEDEELHRVGWETMIRWLRRFLEELRIHSMRIRRVHHVDGVAHEDGELDGIVDGQRVITRVTLHVITINGRWHSVHLERL,0.801
17,DEEKHELEERVRLHIERWKTGDEDTLRHYADPDVRTHIDVGDKKFNYHGREEIVQAYKHLLDQLGVKHSEIDRSTAVNGVVHLHMTLRFDGVRMEWRIDIWIIDGRTKTIHIEIRHR,0.942
18,TEEEEDARRATEELVRIINTGDEDRWERLMDPDVRVEVGDKEIHGRETLSEIFKFKHKHLRIKMDIRDMRLIDGKVWVDIVIDVEFDGRRHIHKTTIVLIKVNGRWRLDEVRLH,1.77
19,DEDFEYALRVAKLFWEAVFTGDEKTLEHLLDPNVRIDINGRHIHGREELIKLFHEIRIHMHEIRIDDIRVQGNYLLVHGHVILEVNINGRTTRIETEVRIEISKVNGRWIIRQSEHT,2.08
20,SDHDKRVMHIWRAVLESYLTGDEHTLKELIDPNTRFFIGDKEYHGMETFSRYARRMYEHLRFSIEVKHEDAINGRYDTHLTLHWEIGDKTDTYDTRLHLDVYDGVVKRLEIRVH,1.46
21,SEHEEIMHKALLFLIYVLLTGDEEILHELLDPNARLDVNGREKHGREDWVQLKRELIHKIKNVRIELHDMKVIGDFLISDQRHDYDGREYKMDVFAFKVDGQWKVREEKLD,1.44
22,DQDEEIMRRLLKTILESWVTGDEDELRRRADPDARSDINGRKHHGRDRVVKRMHDWLRELGIDHLHIEHERIIGEKAHFDTRVHVNGKTFEMFLHFEIIDGRVRSMHVEIR,0.654
23,DEDERNAHRMTQILIRSQETGDEHELMRLLDPHARVIIGDKHIHGWEEFSKLEHEYWERYKNMTLHVRLRHVEVINGVAHIHTHITININGKEDRFEIEIFFLKINGRWVLHSFRVD,0.799
24,DDSDQANKIMLEVLRRKLDTGDEDSIRKLADPHARIVIGDKTIHGMDEHTNELRHMLELWGVDRVELHIRHVEKQGDKLRVDGELHFNGVSVRVIFLHEKINGRWFMRHTEIR,0.984
25,SEREHEALRWMELIIDLWITGDEEFTHKLADPHAKYEYGDKVIHGMEEFTRIMNEWRIKRVHLHEFRFIGNFSHSNMHRRGNIDGVDVDTEITVTVVIVNGRISSISIEVR,0.751

row,Sequence,protease stability score
1,SEEDEIAKHVWERFFKNVLTGDEDTLLRLLDPDTRLIVIIGDKEIHLHGREELSKFLSELRIHHLEITDWVSQGEKARTHVRSDGTVDGKRHHTEMELILIVINGRIKEIRILVR,1.07
2,DETEEEVRKFVEESVKQNNTGNEDFAKRLADPNARFEQGDKELHGREEMRRVLVELWFEDYRIERLHVQGNKVEVEVVVHGVVNGKHQEVRVIIILLKINGRWVFRDVTVK,0.648
3,SDEEHQWELAFRFWITILKTGDEDHFERLADPHYLLQIGDKHVVGREQIAREIEKYRRELGVDHSHFDVDHIQVVGDKVEIQGSLEIRVGDKSIHHTTRTIIRKVDGRWLLKKVHFG,1.23
4,SKEEEDARFMMHLWEHVLRTGDEDVLHKLADPDVKIIIGDKEHVGREELIDIFRERLKEWRIHDFHIRRVHVINGKVHVDGETDGTINGRRIIFRIEIHLVIVDGRIKEVEEDME,1.87
5,SEEDHIMEELARIFWKLMTTGDFDTLEHLMDPHTRLEVNGRIFVGREASEELWRFYKNVRTEIEDVKAQGDKNHIKGHQKFNGREKTVHIHLTIVDGRLKSMSIKEH,2.23
6,DEDERMIDEYLKKLVKSLITGDEETFTRLVDPHARHDFNGVEYHGWLWLHMVRKRADHFEVRIKNSEVQGDKLRLDFELIFRQGDKTITLKIQVIITKVDGRWIITSIDHD,1.79
7,DEEERHMKKLLDELLRAWVTGDESRLSELLDPNARSIVNGKSSHGREESEKIVRWAGVKHFNEDDTKLINGVVVVKGTMEVDGVTWEVDIRNFIFDGRVKEVRIIIR,1.19
8,SDSDHDLEHLLELLMRAYETGNEEEIRRLVDPNARWDINGVELHGWKVMHKFLREMRPTRIRIIIDDSETIGDKMFVDGTIRLDVHIGDKLIHTERRSRLVHRKVDGKWTQTSVIID,0.68
9,SEEERVLREAIKLLEHLLRTGDEKSFHELFDPDVKIEIGDKEVHGRERWVELYRTWGLENVESHVRVDDERIQGDKMEMDMQLDLRYDGRIDTTKVIILATKINGRWKLEHFEEE,0.028
10,SERDRIAKELKDILRSSRETGDERMMEELADPNVRFEINGVTIIGREEFYRWMSEWRLELEHSNDHDEREFDGQVNVDGTLVMRFTVNGQERREKVRITIHFLKVDGRWILHRIIIH,2.03
11,SEDERDSEEWAKILIKLLETGDEDELRRLMDPHVRTEVIVNGRTITHHGREDLTEFLRKLGADVIDIERVRVIDGVVHLDSRSKQGEKHVTLHFEALKINGRWITERFHVKFH,1.3
12,DHKDELNEHIMKVWIHFLETGDEEFLYDLMDPHARLDFNGREIHGREILYEFWKRWNKRFPNRIDFLDSVRVIGDKVEMDTTLRIDGVRHETEIRIHVYDGKLKHIEYHIR,1.4
13,SEIKENLHRFFERWQEVLRTGDERHIRDMADPNVRLDVNGKEIHGRELFANWIREHIERVDHISVHIHDMDIYGNKAKIRGELELDQGDKKHHLDLEIVTTKVDGKWILRSVHVR,2.12
14,SDQDHLTELAEHLFEYSLETGDEELMDKNFDPNMKLEVGEKHEHGRHVAETFSRRFDVVKSIEMKHVTTINGVAEIDGHIDGNFNGVDIRTDVRLVSLKIDGRWFIHSITFV,0.319
15,DEVIEELERFHRTYQHAVHTGDEETHADLMDPNVRIHIGDKHIHGREWLIELVHRLGFKHSKEHWIIRRYDLQGNKVDEDGEVKRILNINGVLEHEERRVRIIILKIDGKWIIHSMHIR,0.433
16,DEEKEEADEHIRLLIDVMKTGDEDSMRRLIDPNVRIRVDGKEDHGMEKLVHLLRHARYREVRIEHVEHQGEKVIIHYKAWVEIDGQENHKKWHFIVTKVDGKWTLKEVSVH,2.3
17,SDEHERLKRFAEEWIRAVITGDFDRLYELMDPHARYHQGDKNHHGRDQIRHFLHRFKNIRIDYHRIELIGDKVHMDGWINYDGKEVETKITVHVIDGRVHIIHVWEI,1.39
18,DEEDELAEHLLHIIIDALETGDWKFFADYFDPHTRLEIEIGDKRFQLHGRESIRKRWEEIWRELGVKHREIKSTRLIGDKIEMDVTINVGDKRIRHHIVIVIVNGRMKKEMVIVR,1.19
19,REEEEHLERVMSLILLIMSTGDFKTLSELFDPHARLRVGDKHLIGWSFVADWIVKFKNMQLRHHRRHVVNGVVEVEDEFRVGDKRFTLRLLFLVVDGVVKEVHIEIEDR,0.833
20,DEDEKMMELIIKWLQNWMLTGDFDVLHDLVDPHAKYDIGDKEMHGREAQSFLRRRFDHIEHVHLRIDDVESQGDKLIVHGQNTVVGEINGKRENFKRKVHITLEKIDGQWFEREVRVR,1.51
21,DEDEEMAHWAMEVLTKLIRTGDEDTILDMIDPHARIVYGDKTHHGREHFEKIIHELGVKVFEVHEIENQGEKVTIHGRQHVNGRTYDVKLFVQKVNGRWYIKRVHIK,1.42
22,SHHEDDSEISIELTHNLIETGDFELLTELFDPNARMDYNGVTVHGRERVSEFLSRFAHHIRIKRRILRHMDLFDGQIHLHEEYHYDWDGQDIHTEVRFRSEKVNGRWVPKLLHRI,0.969
23,DEEDKALEESMRTYHESIHTGDEESFRLLFDPDVRMRINGVDLHGREAMEWMSERIDHLELRRIRFRSIETQGNKIRIDGHEDIEILVDGKRMRVIDRVIIQAVKVNGRWTIKSIKFG,1.15
24,SEEDEHLRHLAELFVKLLLTGDFNTLHHLLDPHVKFNIGEFESHGMEHLWRAWEEWRFHHISLEDVRVQGDKAHLHFRSTVHYNGRTKRVDTHVEIKVVNGRFKEVHIRIH,1.59
25,DTDKKHIQNVLRLLSTLEHTGDWEALKELADPNVRVVVNGQEIHGRDMFNKHFEELRINDSRMILRDFEVQGDKIHVEGEVEFDGIIDGREKRFVRHVRIINVKIDGRWVIREIQVR,1.62
